Data on 3 molecules can be found in paper PMC5600424, “An efficient method for the preparation of preferentially heterodimerized recombinant S100A8/A9 coexpressed in Escherichia coli” (Biochemistry and Biophysics Reports, 2016).

Common to all, as to test: SEC; SEC-HPLC (COSMOSIL 5Diol-300-II), 50 mM sodium phosphate buffer pH 6.0, 1.0 mL/min, 30 ug of cation-exchange peak fraction injected; mass estimated with a gel filtration calibration kit
Data set [1] has as its target T1, human S100A9 (human), P06702.
T1 chain: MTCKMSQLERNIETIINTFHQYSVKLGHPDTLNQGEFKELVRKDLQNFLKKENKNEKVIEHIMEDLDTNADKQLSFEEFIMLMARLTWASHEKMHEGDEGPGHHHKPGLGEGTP
The settings on record: remark: other sources report otherwise.

Data set [2] deals with the molecule itself.
In another data set the target is T2, human S100A9 (human, UniProt P06702 1-114).
T2 construct: human S100A9, UniProt P06702; codon-optimised synthetic gene in pET21a (NdeI/BamHI), expressed without any tags; also called MRP-14
T2 sequence (looked up): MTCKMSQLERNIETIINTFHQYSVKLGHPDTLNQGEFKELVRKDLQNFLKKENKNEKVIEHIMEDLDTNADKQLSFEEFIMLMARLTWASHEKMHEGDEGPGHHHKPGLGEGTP
The settings on record: both partners purified.

B1: human S100A9, P06702 1-114 (natural protein)
chain: MTCKMSQLERNIETIINTFHQYSVKLGHPDTLNQGEFKELVRKDLQNFLKKENKNEKVIEHIMEDLDTNADKQLSFEEFIMLMARLTWASHEKMHEGDEGPGHHHKPGLGEGTP
In the case of B1, the stoichiometry N in data set [1] is 2.

B2: S100A8/A9 heterodimer (complex, human)
chain 1: MLTELEKALNSIIDVYHKYSLIKGNFHAVYRDDLKKLLETECPQYIRKKGADVWFKELDINTDGAVNFQEFLILVIKMGVAAHKKSHEESHKE
chain 2: MTCKMSQLERNIETIINTFHQYSVKLGHPDTLNQGEFKELVRKDLQNFLKKENKNEKVIEHIMEDLDTNADKQLSFEEFIMLMARLTWASHEKMHEGDEGPGHHHKPGLGEGTP
notes: human S100A8, UniProt P05109; as the chain of m1; no tags; human S100A9, UniProt P06702; as the chain of m2; Heterodimer formed during coexpression; used here only for its own association to a higher complex; also called MRP-8/14; calprotectin; source: E. coli T7 Express, coexpressed from pET21-S100A8-S100A9, purified (cation-exchange chromatography, Peak 1)
As to B2, the binding result in data set [2] is listed as “binds”.

B3: human S100A8 (natural protein, UniProt P05109 1-93, looked up)
chain: MLTELEKALNSIIDVYHKYSLIKGNFHAVYRDDLKKLLETECPQYIRKKGADVWFKELDINTDGAVNFQEFLILVIKMGVAAHKKSHEESHKE
notes: human S100A8, UniProt P05109; codon-optimised synthetic gene in pET21a (NdeI/BamHI), expressed without any tags; also called MRP-8
Consider B3, for which the “stoichiometry N” value in data set [2] was 2. Besides, the binding result with human S100A9 is “binds”.

In general, stoichiometry N refers to a count of units in the complex or per binding partner.
